Consider 2 molecules from patent US20200317768A1 (published 2020).

Where a chain is given by its changes, count along the chain named. Names and notes keep the numbering of the source.

For experiment [1], the target named is T1, human FcγRIIb extracellular domain, C-terminal His-tag (human, UniProt P31994 43-217).
T1 construct: also called FcgRIIb (human)
T1 sequence: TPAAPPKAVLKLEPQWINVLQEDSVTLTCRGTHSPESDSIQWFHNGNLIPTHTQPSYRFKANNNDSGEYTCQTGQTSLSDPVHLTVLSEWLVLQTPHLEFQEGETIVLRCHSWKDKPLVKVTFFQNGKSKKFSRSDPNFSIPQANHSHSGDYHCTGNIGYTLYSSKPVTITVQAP
Briefly: SPR (BIACORE) 25C, antibody captured, FcgR as analyte. How it is done:
(§1) The kinetic analysis of interactions between these antibodies and FcγR was carried out using BIACORE® T200 or BIACORE® 4000 (GE Healthcare). HBS-EP+ (GE Healthcare) was used as the running buffer, and the measurement temperature was set to 25° C. A chip produced by immobilizing Protein A. Protein A/G or mouse anti-human IgG kappa light chain (BD Biosciences) onto a Series S Sensor Chip CM4 or CM5 (GE Healthcare) by the amine-coupling method was used. […] After the measurement, the antibody captured on the chip was washed off by allowing reaction with 10 mM glycine-HCl, pH1.5 and 25 mM NaOH so that the chip was regenerated and used repeatedly. The sensorgrams obtained as measurement results were analyzed by the 1:1 Langmuir binding model using the BIACORE® Evaluation Software to calculate the binding rate constant ka (L/mol/s) and dissociation rate constant kd (l/s), and the dissociation constant KD (mol/L) was calculated from these values. […] Regarding such interactions, KD values were calculated using the following 1:1 binding model described in BIACORE® T100 Software Handbook BR1006-48 Edition AE.
A general note: In SPR one partner is held on a chip, and binding of the other changes the refractive index at the surface.

Experiment [2] deals with T2, cynomolgus monkey FcγRIIa3 extracellular domain, C-terminal His-tag (cynomolgus monkey).
T2 construct: also called cyno FcγRIIa3; FcgRIIa3
T2 chain: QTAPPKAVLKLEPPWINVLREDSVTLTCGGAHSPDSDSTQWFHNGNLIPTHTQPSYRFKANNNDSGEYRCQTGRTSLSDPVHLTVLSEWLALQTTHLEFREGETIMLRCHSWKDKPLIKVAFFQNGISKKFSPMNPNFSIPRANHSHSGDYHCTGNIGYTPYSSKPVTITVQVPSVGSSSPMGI
The experiment is described as above. How it is done: as §1

For experiment [3], the target named is T3, cynomolgus monkey FcγRIIa2 extracellular domain, C-terminal His-tag (cynomolgus monkey).
T3 construct: also called cyno FcγRIIa2; FcgRIIa2
T3 chain: T2 chain with I127K, K130N, P133H, R142Q
The description is as above. How it is done:
as §1

Experiment [4] has as its target T4, cynomolgus monkey FcγRIIa1 extracellular domain, C-terminal His-tag (cynomolgus monkey).
T4 construct: also called cyno FcγRIIa1; FcgRIIa1
T4 chain: T2 chain with T95P, A121T, S128A, P133H, N135D
The description is as above. As for the experimental part:
as §1

For another experiment, the target named is T5, Human latent myostatin (human, UniProt O14793 25-266; O14793 267-375).
T5 construct: also called human myostatin latent form
T5 sequence 1: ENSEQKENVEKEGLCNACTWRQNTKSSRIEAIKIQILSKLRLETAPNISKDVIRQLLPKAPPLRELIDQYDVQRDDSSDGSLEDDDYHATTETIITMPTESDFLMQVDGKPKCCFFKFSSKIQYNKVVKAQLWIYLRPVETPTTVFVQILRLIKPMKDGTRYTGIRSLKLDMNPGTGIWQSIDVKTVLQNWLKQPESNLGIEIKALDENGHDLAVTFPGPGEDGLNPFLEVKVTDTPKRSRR
T5 sequence 2: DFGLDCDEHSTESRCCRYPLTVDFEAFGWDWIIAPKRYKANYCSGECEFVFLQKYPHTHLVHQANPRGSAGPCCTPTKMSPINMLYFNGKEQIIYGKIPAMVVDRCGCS
The experiment can be described thus: SPR (BIACORE T200) 37C, pH 7.4, antibody captured by ProA/G.

A further experiment addresses T6, Mouse latent myostatin (mouse, UniProt O08689 26-267; O08689 268-376).
T6 construct: Latent form = complex of two propeptides and the mature dimer
T6 sequence 1: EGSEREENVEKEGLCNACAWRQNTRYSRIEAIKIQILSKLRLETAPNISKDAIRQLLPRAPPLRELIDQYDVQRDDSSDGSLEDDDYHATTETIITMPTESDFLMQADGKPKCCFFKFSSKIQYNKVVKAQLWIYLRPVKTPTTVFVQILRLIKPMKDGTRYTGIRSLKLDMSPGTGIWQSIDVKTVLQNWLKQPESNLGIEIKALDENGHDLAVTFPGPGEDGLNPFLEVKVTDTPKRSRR
T6 sequence 2: T5 sequence 2
Described as above.

Experiment [5] has as its target T7, Cynomolgus monkey latent myostatin (cynomolgus monkey, UniProt Q95J86 25-266; Q95J86 267-375).
T7 construct: Latent form = complex of two propeptides and the mature dimer; also called Cyno latent myostatin
T7 sequence 1: T5 sequence 1 with V52A
T7 sequence 2: T5 sequence 2
Described as above.

B1: MS_M103205H795-SG1/M103202L889-SK1 (antibody, human IgG1, kappa)
heavy: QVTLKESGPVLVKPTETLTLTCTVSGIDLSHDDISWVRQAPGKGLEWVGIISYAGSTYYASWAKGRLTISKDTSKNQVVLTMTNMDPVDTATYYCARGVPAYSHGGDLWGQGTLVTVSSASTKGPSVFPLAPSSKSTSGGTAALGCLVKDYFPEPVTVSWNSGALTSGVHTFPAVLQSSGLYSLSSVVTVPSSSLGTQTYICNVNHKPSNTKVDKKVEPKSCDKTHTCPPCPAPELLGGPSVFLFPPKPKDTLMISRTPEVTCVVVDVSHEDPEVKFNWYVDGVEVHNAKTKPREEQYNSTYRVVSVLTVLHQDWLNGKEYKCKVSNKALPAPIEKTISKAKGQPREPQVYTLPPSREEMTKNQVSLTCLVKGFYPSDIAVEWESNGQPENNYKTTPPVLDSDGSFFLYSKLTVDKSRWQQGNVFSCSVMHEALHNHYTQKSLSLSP
light: DIVMTQSPATLSLSPGERATLSCTSSQSVYHANWLSWFQQKPGQPPKLLIYWASTLAYGVPSRFSGSGSGTDFTLTISSLQPEDAATYYCAGGYGGGRYAFGQGTKVEIKRTVAAPSVFIFPPSDEQLKSGTASVVCLLNNFYPREAKVQWKVDNALQSGNSQESVTEQDSKDSTYSLSSTLTLSKADYEKHKVYACEVTHQGLSSPVTKSFNRGEC
notes: also called MS1032LO06-SG1
As for B1, the Kd in experiment [1] came out at 4.7 µM; in experiment [2] it was 15 µM; in experiment [3], 5.2 µM; in experiment [4], 4.2 µM; with Human latent myostatin it was 0.000285 µM; in the experiment with Mouse latent myostatin, 0.000299 µM. In experiment [5], the dissociation constant (Kd) turned out to be 0.000343 µM.

B2: M103205H795-MY009/M103202L889-SK1 (antibody, human IgG1, kappa)
heavy: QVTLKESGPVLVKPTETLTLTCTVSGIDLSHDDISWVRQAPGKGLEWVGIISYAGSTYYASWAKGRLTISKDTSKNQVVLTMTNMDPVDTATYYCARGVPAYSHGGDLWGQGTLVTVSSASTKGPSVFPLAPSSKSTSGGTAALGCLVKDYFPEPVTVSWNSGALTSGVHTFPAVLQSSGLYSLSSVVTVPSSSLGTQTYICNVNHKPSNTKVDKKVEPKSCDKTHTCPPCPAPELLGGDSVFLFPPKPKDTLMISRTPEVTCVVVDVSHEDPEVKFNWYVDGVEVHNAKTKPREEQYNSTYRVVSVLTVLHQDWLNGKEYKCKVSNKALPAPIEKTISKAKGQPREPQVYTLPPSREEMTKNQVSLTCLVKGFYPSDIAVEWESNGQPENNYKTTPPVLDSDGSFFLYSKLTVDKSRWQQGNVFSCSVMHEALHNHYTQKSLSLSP
light: B1 light
notes: CH MY009 = SG1 with P238D (EU numbering); also called MS1032LO06-MY009
With B2, the equilibrium dissociation constant (Kd) in experiment [1] worked out at 1.4 µM; in experiment [2], 31 µM; in experiment [3] it was 26 µM; in experiment [4] it was 25 µM.

What is called Kd is the constant that tells how readily two partners part at equilibrium.
